{"source": "FireProtDB (doi:10.1093/protein/12.6.497)", "conditions": "Sus scrofa, pH 7, 20 °C, GdnHCl, Fluorescence, PIPES 50 mM, reversible: yes", "data": [{"substance": "Phospholipase A2, major isoenzyme H70K, P00592", "values": [{"measurement": "ddG of mutation (higher = less stable)", "setting": "structure 1P2P", "result": 3.21, "unit": "kcal/mol"}, {"measurement": "denaturant m value", "setting": "structure 1P2P", "result": 0.65, "unit": "kcal/mol/M"}, {"measurement": "denaturant midpoint (higher = more stable)", "setting": "structure 1P2P", "result": 5.2, "unit": "M"}, {"measurement": "unfolding free energy", "setting": "structure 1P2P", "result": 3.3, "unit": "kcal/mol"}]}, {"substance": "Phospholipase A2, major isoenzyme H70N, P00592", "values": [{"measurement": "ddG of mutation (higher = less stable)", "setting": "structure 1P2P", "result": 2.28, "unit": "kcal/mol"}, {"measurement": "denaturant m value", "setting": "structure 1P2P", "result": 0.84, "unit": "kcal/mol/M"}, {"measurement": "denaturant midpoint (higher = more stable)", "setting": "structure 1P2P", "result": 5.1, "unit": "M"}, {"measurement": "unfolding free energy", "setting": "structure 1P2P", "result": 4.23, "unit": "kcal/mol"}]}, {"substance": "Phospholipase A2, major isoenzyme H70Q, P00592", "values": [{"measurement": "ddG of mutation (higher = less stable)", "setting": "structure 1P2P", "result": 1.03, "unit": "kcal/mol"}, {"measurement": "denaturant m value", "setting": "structure 1P2P", "result": 0.91, "unit": "kcal/mol/M"}, {"measurement": "denaturant midpoint (higher = more stable)", "setting": "structure 1P2P", "result": 6.1, "unit": "M"}, {"measurement": "unfolding free energy", "setting": "structure 1P2P", "result": 5.48, "unit": "kcal/mol"}]}, {"substance": "Phospholipase A2, major isoenzyme wild type, P00592", "values": [{"measurement": "denaturant m value", "result": 1, "unit": "kcal/mol/M"}, {"measurement": "denaturant midpoint (higher = more stable)", "result": 6.4, "unit": "M"}, {"measurement": "unfolding free energy", "result": 6.51, "unit": "kcal/mol"}]}]}
